Laboratory results as given in patent US6887705B1, “Tyrosine phosphorylated cleavage furrow-associated proteins (PSTPIPs)” (Genentech, Inc., priority 1997, dated 2005).
“Also recorded” adds a separate entry of the source. Where two headings read alike, the source gives them in different places.

Columns and labels:
[1] = system: PST PIP - PTP HSCF association; assay: Coprecipitation of PST PIP and PTP HSCF from co-transfected COS cells; format: cell-based
Method: (§1) COS-7 cells were transfected by electroporation. Briefly, 1.5×10^6 COS-7 cells were mixed with 24 μg total DNA in PBS and electroporated at 960 μF, […] (Bio-Rad™ Gene Pulsar™). Following electroporation, cells were seeded in 10 cm dishes and incubated for 3 days. 10-cm dishes of transfected COS cells were washed twice with ice-cold PBS, and lysed in 1 ml of M-RIPA (50 mM Tris 7.4, 1% NP40, 0.25% DOC, 150 mM NaCl, 1 mM sodium ortho-vanadate, 1 mM NaF plus Complete™ Protease Inhibitors (Boehringer Mannheim)). Lysates were incubated for 15 minutes with 100 μl UltraLink Immobilized Protein A/G™ (Pierce) at 4° C., followed by centrifugation for 5 minutes. Supernatants were collected and stored at −70° C. or directly immunoprecipitated. 5 μg of M2 or 12CA5 was added to 500 μl of lysate and incubated overnight at 4° C. Ultralink Protein A/G™ was added and incubation continued for 2 hours at 4° C. The immune complexes were washed 3 times with M-RIPA. The proteins were subjected to SDS-PAGE and transferred to nitrocellulose in 1X Transfer Buffer™ (Novex). Immunoblots were blocked overnight at 4° C. in 3% milk/PBS. To detect Flag-tagged PIP, blots were incubated with 10 μg/ml Bio-M2 (Biotinylated anti-FLAG monoclonal Ab, KODAK) followed by incubation in 10 μg/ml streptavidin-HRP (UBI). To detect HA-tagged PTPhscf, blots were incubated in anti-(HA)-peroxidase (Boehringer Mannheim) as per manufacturer's instructions. To detect phosphotyrosine, blots were incubated in HRP-conjugated 4G10 (anti-phosphotyrosine monoclonal, UBI) as per manufacture's instructions.
In vitro binding analyses between various PTP HSCF and PST PIP constructs were performed as previously described (Spencer et al, (1997), supra). Briefly, plasmids were transcribed and translated in vitro using the TnT Rabbit Reticulocyte Lysate System (Promega). Samples were diluted in 50 mM HEPES, pH 7.2, 1% triton X-100, 10% glycerol, 100 mM NaCl, and 2 μg/ml each of leupeptin, pepstatin, aprotinin and PMSF (lysis buffer). Samples were than reacted with GST fusion proteins at various concentrations, and the bound proteins were centrifuged using glutathione-sepharose beads and analyzed on SDS polyacrylamide gels. C-terminally-derived peptide inhibition studies were performed by incubating the GST fusion protein binding reactions in the presence of 10 μg/ml of the indicated peptides. Peptides were produced by FMOC-protected amino acids as previously described (Spencer et al, (1997), supra). In vivo interactions between various forms of PTP HSCF and PST PIP were also performed as previously described (Spencer et al, (1997), supra). Briefly, COS cells were transfected with various constructs, and after 48 hours, lysates were prepared and immunoprecipitated with antibodies to either the FLAG epitope contained at the C-terminus of PST PIP or an HA epitope contained at the N-terminus of PTP HSCF. The resultant blots were probed with anti-FLAG to detect PST PIP, anti-HA to detect PTP HSCF or anti-phosphotyrosine to detect levels of this modified amino acid in each protein.

[2] = system: PSTPIP tyrosine phosphorylation; assay: Tyrosine phosphorylation of PSTPIP in COS cells co-transfected with V-src; format: cell-based; settings: COS cells
Method: Baf3 cells were lysed in 1% Triton, 50 mM HEPES. 10% glycerol and 5 mM EDTA containing 1 μg/ml aprotinin, PMSF, leupeptin and pepstatin were 1 mM Sodium Vanadate and 10 mM Iodoacetic acid. Cells were treated with 0.1 mM Pervanadate for 4 hours before lysis. Immunoprecipitations were performed in the vanadate-containing lysis buffer using 1 μg/ml anti-PSTPIP polyclonal antibody and 400 μg of lysate protein at 4° C. overnight. Western blots were performed using 1 μg/ml affinity purified anti-PSTPIP or 1:5000 dilution of commercial 4G10 anti-phosphotyrosine monoclonal (Upstate Biotech). Signal was detected by HRPO-ECL reagents (Pierce). The C221-S mutant was as previously described (Cheng et al., (1996) supra). The PTP HSCF D197-A mutant was generated using PCR. Mutagenesis primer D197A.F ([…]) (SEQ ID NO:24), corresponding to nucleotide 591, and primer D197A.R ([…]) (SEQ ID NO:25) which corresponds to the stop codon, were used in PCR to generate a fragment that could be cut with Mscl and XbaI. pRK.HA.38 WT, a plasmid which encoded the wild type enzyme under the control of the cytomegalovirus promoter (Cheng et al., (1996) supra), was digested with Clal and Mscl and the resulting 600 bp fragment was ligated with the Mscl-Xbal PCR fragment into the Clal and Xbal sites of the pRK.tkneo. A plasmid encoding the V-src oncogene under the control of the SV40 early promoter was the kind gift of Dr. Art Levinson (CEO-Genetech, Inc.). NIH 3T3 cells and the COS-7 cells were cultured in high glucose DMEM supplemented with 10% FBS, 2 mM L-Glutamine, 10 mM HEPES pH 7.2 and pen-strep.
as §1
COS cells were transfected with a constant amount of either the wild type of W232A mutant of PST PIP and cotransfected with increasing amounts of a plasmid encoding the v-Src tyrosine kinase (Spencer et al, (1997), supra). Plasmid concentrations were equalized with an empty vector containing the CMV promoter. After 48 hours, lysates were prepare and immunoprecipitated with anti-FLAG monoclonal antibody. Precipitates were run on SDS polyacrylamide gels, blotted, and probed with either anti-FLAG antibody or anti-phosphotyrosine antibody as previously described (Spencer et al, (1997), supra). Bound antibodies were visualized using enhanced chemiluminescent reagents.

CHO cells = assay: Confocal microscopy of PST PIP forms expressed in CHO cells; format: cell-based, Chinese hamster; settings: transfected CHO cells
Method: Confocal microscopy was performed as previously described (Spencer et al, (1997), supra). Briefly, CHO cells in chamber slides were transfected using Lipofectamine and the indicated plasmids. 48 hours later, cells were fixed in formaldehyde and stained with an anti-FLAG epitope specific antibody (Kodak) and Fluorescein-Phalloidin (Molecular Probes). Anti-Flag stained cells were washed and stained with Cy3-conjugated sheep anti-mouse IgG. Stained cells were observed using Molecular Dynamics Confocal Microscope™ (2001) and analyzed with ImageSpace™ software (Molecular Dynamics).

B1: PSTPIP: murine PST Phosphatase Interacting Protein, 415 residues (SEQ ID NO:1) (protein)
chain: MMAQLQFRDAFWCRDFTAHTGYEVLLQRLLDGRKMCKDVEELLRQRAQAEERYGKELVQIARKAGGQTEMNSLRTSFDSLKQQTENVGSAHIQLALALREELRSLEEFRERQKEQRKKYEAIMDRVQKSKLSLYKKTMESKKAYDQKCRDADDAEQAFERVSANGHQKQVEKSQNKAKQCKESATEAERVYRQNIEQLERARTEWEQEHRTTCEAFQLQEFDRLTILRNALWVHCNQLSMQCVKDDELYEEVRLTLEGCDVEGDINGFIQSKSTGREPPAPVPYQNYYDREVTPLIGSPSIQPSCGVIKRFSGLLHGSPKTTPSAPAASTETLTPTPERNELVYASIEVQATQGNLNSSAQDYRALYDYTAQNSDELDISAGDILAVILEGEDGWWTVERNGQRGFVPGSYLEKL
modifications: Mus Musculus
[1]; listed as PST PIP wt
  in vivo association (coprecipitation) of PST PIP and PTP HSCF: found in a complex with precipitated PTP HSCF
[1]; listed as wild type PST PIP
  in vivo association (coprecipitation) of PST PIP and PTP HSCF: in vivo association of the proteins
[2]; listed as PST PIP wt
  tyrosine phosphorylation of PST PIP forms in the presence of dominant negative PTP HSCF C-S (substrate trapping): hyperphosphorylated
[2]; listed as wild type PST PIP
  tyrosine phosphorylation of PST PIP forms in the presence of dominant negative PTP HSCF C-S (substrate trapping): enhanced tyrosine phosphorylation
CHO cells
  cellular localization of PST PIP forms (assay for correct folding): predominantly co-localized with the cortical actin cytoskeleton

B2: W232A mutant of PST PIP, C-terminal FLAG (other)
chain: MMAQLQFRDAFWCRDFTAHTGYEVLLQRLLDGRKMCKDVEELLRQRAQAEERYGKELVQIARKAGGQTEMNSLRTSFDSLKQQTENVGSAHIQLALALREELRSLEEFRERQKEQRKKYEAIMDRVQKSKLSLYKKTMESKKAYDQKCRDADDAEQAFERVSANGHQKQVEKSQNKAKQCKESATEAERVYRQNIEQLERARTEWEQEHRTTCEAFQLQEFDRLTILRNALAVHCNQLSMQCVKDDELYEEVRLTLEGCDVEGDINGFIQSKSTGREPPAPVPYQNYYDREVTPLIGSPSIQPSCGVIKRFSGLLHGSPKTTPSAPAASTETLTPTPERNELVYASIEVQATQGNLNSSAQDYRALYDYTAQNSDELDISAGDILAVILEGEDGWWTVERNGQRGFVPGSYLEKLDYKDDDDK
notes: In vitro translated or expressed in COS cells; also called W232A PST PIP; PST PIP with an alanine replacement mutation at tryptophan232
[1]
  in vivo association (coprecipitation) of PST PIP and PTP HSCF: complete lack of in vivo association; also recorded: neither coprecipitated with PTP HSCF
[2]
  efficiency of tyrosine phosphorylation in the presence of v-Src versus wild type: significantly more efficiently tyrosine phosphorylated
  tyrosine phosphorylation of PST PIP forms in the presence of dominant negative PTP HSCF C-S (substrate trapping): not hyperphosphorylated
[2]; increasing v-Src plasmid
  levels of phosphotyrosine in mutant versus wild type PST PIP, densitometry: 2-3 fold
CHO cells
  cellular localization of PST PIP forms (assay for correct folding): indistinguishable from the wild type protein
